Source: patent US20050164323

Assays:
[1] = target: T1, KTRKISQSAQT (SEQ ID NO: 52)
T1 chain: KTRKISQSAQT

[2] = target: T2, KIQASFRGHMA (SEQ ID NO: 18)
T2 chain: KIQASFRGHMA

[3] = target: T3, SQKRPSQRHGS (SEQ ID NO: 42)
T3 chain: SQKRPSQRHGS

[4] = target: T4, QAWSKTTPRRI (SEQ ID NO: 31)
T4 chain: QAWSKTTPRRI

[5] = target: T5, ITRKRSGEAAV (SEQ ID NO: 40)
T5 chain: ITRKRSGEAAV

[6] = target: T6, SPLRHSFQKQQ (SEQ ID NO: 25)
T6 chain: SPLRHSFQKQQ

[7] = target: T7, FARKGSLRQKN (SEQ ID NO: 6)
T7 chain: FARKGSLRQKN

[8] = target: T8, Peptide 1 (FARKGSLRQ), substrate, pseudo-substrate PKC alpha
T8 chain: FARKGSLRQ

[9] = target: T9, AFRRTSLAGGG (SEQ ID NO: 44)
T9 chain: AFRRTSLAGGG

[10] = target: T10, RGRSRSAPPNL (SEQ ID NO: 29)
T10 chain: RGRSRSAPPNL

[11] = target: T11, EEPVLTLVDEA (SEQ ID NO: 41)
T11 chain: EEPVLTLVDEA

[12] = target: T12, VAKRESRGLKS (SEQ ID NO: 21)
T12 chain: VAKRESRGLKS

[13] = target: T13, Peptide 3 (LKRSLSEM), substrate, Serum Response Factor
T13 chain: LKRSLSEM

[14] = target: T14, ATFKKTFKHLL (SEQ ID NO: 24)
T14 chain: ATFKKTFKHLL

[15] = target: T15, MYHNSSQKRH (SEQ ID NO: 36)
T15 chain: MYHNSSQKRH

[16] = target: T16, DIKRLTPRFTL (SEQ ID NO: 34)
T16 chain: DIKRLTPRFTL

[17] = target: T17, NKRRATLPHPG (SEQ ID NO: 53)
T17 chain: NKRRATLPHPG

[18] = target: T18, KPFKLSGLSFK (SEQ ID NO: 43)
T18 chain: KPFKLSGLSFK

[19] = target: T19, KRRQISIRGIV (SEQ ID NO: 47)
T19 chain: KRRQISIRGIV

[20] = target: T20, LSRTLSVAAKK (SEQ ID NO: 19)
T20 chain: LSRTLSVAAKK

[21] = target: T21, TRSKGTLRYMS (SEQ ID NO: 38)
T21 chain: TRSKGTLRYMS

[22] = target: T22, APKRGSILSKP (SEQ ID NO: 35)
T22 chain: APKRGSILSKP

[23] = target: T23, RVVGGSLRGAQ (SEQ ID NO: 50)
T23 chain: RVVGGSLRGAQ

[24] = target: T24, … (SEQ ID NO: 16)
T24 chain: KKRFSFKKSFK

[25] = target: T25, … (SEQ ID NO: 54)
T25 chain: SYTRFSLARQV

[26] = target: T26, QKKRVSMILQS (SEQ ID NO: 59)
T26 chain: QKKRVSMILQS

[27] = target: T27, ETKKQSFKQTG (SEQ ID NO: 33)
T27 chain: ETKKQSFKQTG

[28] = target: T28, LMRRNSVTPLA (SEQ ID NO: 39)
T28 chain: LMRRNSVTPLA

[29] = target: T29, KTRRLSAFQQG (SEQ ID NO: 28)
T29 chain: KTRRLSAFQQG

[30] = target: T30, MYRRSYVFQT (SEQ ID NO: 30)
T30 chain: MYRRSYVFQT

[31] = target: T31, WPWQVSLRTRF (SEQ ID NO: 48)
T31 chain: WPWQVSLRTRF

[32] = target: T32, RGFLRSASLGR (SEQ ID NO: 32)
T32 chain: RGFLRSASLGR

[33] = target: T33, NKRRGSVPILR (SEQ ID NO: 57)
T33 chain: NKRRGSVPILR

[34] = target: T34, IYRASYYRKGG (SEQ ID NO: 27)
T34 chain: IYRASYYRKGG

[35] = target: T35, KAFRDTFRLLL (SEQ ID NO: 22)
T35 chain: KAFRDTFRLLL

[36] = target: T36, Peptide 4 (RTPKLARQASIELPSM), substrate, lymphocyte-specific protein 1
T36 chain: RTPKLARQASIELPSM

[37] = target: T37, MRRSKSPADSA (SEQ ID NO: 37)
T37 chain: MRRSKSPADSA

[38] = target: T38, GKRRPSRLVAL (SEQ ID NO: 58)
T38 chain: GKRRPSRLVAL

[39] = target: T39, ALGKRTAKYRW (SEQ ID NO: 45)
T39 chain: ALGKRTAKYRW

[40] = target: T40, RLRRLTAREAA (SEQ ID NO: 56)
T40 chain: RLRRLTAREAA

[41] = target: T41, NSRRPSRATWL (SEQ ID NO: 55)
T41 chain: NSRRPSRATWL

[42] = target: T42, QKRPSQRSKYL (SEQ ID NO: 17)
T42 chain: QKRPSQRSKYL

[43] = target: T43, GTFRSSIRRLS (SEQ ID NO: 49)
T43 chain: GTFRSSIRRLS

[44] = target: T44, LRQLRSPRRTQ (SEQ ID NO: 51)
T44 chain: LRQLRSPRRTQ

[45] = target: T45, VVRTDSLKGRR (SEQ ID NO: 46)
T45 chain: VVRTDSLKGRR

[46] = target: T46, KFRTPSFLKKS (SEQ ID NO: 26)
T46 chain: KFRTPSFLKKS

[47] = target: T47, AKIQASFRGHM (SEQ ID NO: 20)
T47 chain: AKIQASFRGHM

[48] = target: T48, PKRPGSVHRTP (SEQ ID NO: 23)
T48 chain: PKRPGSVHRTP

B1: PKC-θ kinase domain (PKC-θ KD; amino acid residues 362 to 706), C-terminal hexa-histidine tag, expressed in E. coli (protein)
chain: MGPELNKERPSLQIKLKIEDFILHKMLGKGSFGKVFLAEFKKTNQFFAIKALKKDVVLMDDDVECTMVEKRVLSLAWEHPFLTHMFCTFQTKENLFFVMEYLNGGDLMYHIQSCHKFDLSRATFYAAEIILGLQFLHSKGIVYRDLKLDNILLDKDGHIKIADFGMCKENMLGDAKTNTFCGTPDYIAPEILLGQKYNHSVDWWSFGVLLYEMLIGQSPFHGQDEEELFHSIRMDNPFYPRWLEKEAKDLLVKLFVREPEKRLGVRGDIRQHPLFREINWEELERKEIDPPFRPKVKSPFDCSNFDKEFLNEKPRLSFADRALINSMDQNMFRNFSFMNPGMERLISHHHHHH
- phosphorylation of the peptide spot (32P, peptide array) [1]: shown to be substrates for PKC-θ
- phosphorylation of the peptide spot (32P, peptide array) [2]: shown to be substrates for PKC-θ
- phosphorylation of the peptide spot (32P, peptide array) [3]: shown to be substrates for PKC-θ
- phosphorylation of the peptide spot (32P, peptide array) [4]: shown to be substrates for PKC-θ
- phosphorylation of the peptide spot (32P, peptide array) [5]: shown to be substrates for PKC-θ
- phosphorylation of the peptide spot (32P, peptide array) [6]: shown to be substrates for PKC-θ
- phosphorylation of the peptide spot (32P, peptide array) [7]: shown to be substrates for PKC-θ
- (kcat/Km)^η, slope of the solvent microviscosity effect, 250 mM NaCl [8]: the slope had a (kcat/Km)^η value of 0.86 in 250 mM NaCl
- kcat/Km [8]: 2.7e+06 M⁻¹ s⁻¹
- phosphorylation of the peptide spot (32P, peptide array) [9]: shown to be substrates for PKC-θ
- phosphorylation of the peptide spot (32P, peptide array) [10]: shown to be substrates for PKC-θ
- phosphorylation of the peptide spot (32P, peptide array) [11]: shown to be substrates for PKC-θ
- phosphorylation of the peptide spot (32P, peptide array) [12]: shown to be substrates for PKC-θ
- kcat [13]: 21 s⁻¹
- kcat/Km [13]: 51000 M⁻¹ s⁻¹
- phosphorylation of the peptide spot (32P, peptide array) [14]: shown to be substrates for PKC-θ
- phosphorylation of the peptide spot (32P, peptide array) [15]: shown to be substrates for PKC-θ
- phosphorylation of the peptide spot (32P, peptide array) [16]: shown to be substrates for PKC-θ
- phosphorylation of the peptide spot (32P, peptide array) [17]: shown to be substrates for PKC-θ
- phosphorylation of the peptide spot (32P, peptide array) [18]: shown to be substrates for PKC-θ
- phosphorylation of the peptide spot (32P, peptide array) [19]: shown to be substrates for PKC-θ
- phosphorylation of the peptide spot (32P, peptide array) [20]: shown to be substrates for PKC-θ
- phosphorylation of the peptide spot (32P, peptide array) [21]: shown to be substrates for PKC-θ
- phosphorylation of the peptide spot (32P, peptide array) [22]: shown to be substrates for PKC-θ
- phosphorylation of the peptide spot (32P, peptide array) [23]: shown to be substrates for PKC-θ
- phosphorylation of the peptide spot (32P, peptide array) [24]: shown to be substrates for PKC-θ
- phosphorylation of the peptide spot (32P, peptide array) [25]: shown to be substrates for PKC-θ
- phosphorylation of the peptide spot (32P, peptide array) [26]: shown to be substrates for PKC-θ
- phosphorylation of the peptide spot (32P, peptide array) [27]: shown to be substrates for PKC-θ
- phosphorylation of the peptide spot (32P, peptide array) [28]: shown to be substrates for PKC-θ
- phosphorylation of the peptide spot (32P, peptide array) [29]: shown to be substrates for PKC-θ
- phosphorylation of the peptide spot (32P, peptide array) [30]: shown to be substrates for PKC-θ
- phosphorylation of the peptide spot (32P, peptide array) [31]: shown to be substrates for PKC-θ
- phosphorylation of the peptide spot (32P, peptide array) [32]: shown to be substrates for PKC-θ
- phosphorylation of the peptide spot (32P, peptide array) [33]: shown to be substrates for PKC-θ
- phosphorylation of the peptide spot (32P, peptide array) [34]: shown to be substrates for PKC-θ
- phosphorylation of the peptide spot (32P, peptide array) [35]: shown to be substrates for PKC-θ
- kcat [36]: 14 s⁻¹
- kcat/Km [36]: 58000 M⁻¹ s⁻¹
- phosphorylation of the peptide spot (32P, peptide array) [37]: shown to be substrates for PKC-θ
- phosphorylation of the peptide spot (32P, peptide array) [38]: shown to be substrates for PKC-θ
- phosphorylation of the peptide spot (32P, peptide array) [39]: shown to be substrates for PKC-θ
- phosphorylation of the peptide spot (32P, peptide array) [40]: shown to be substrates for PKC-θ
- phosphorylation of the peptide spot (32P, peptide array) [41]: shown to be substrates for PKC-θ
- phosphorylation of the peptide spot (32P, peptide array) [42]: shown to be substrates for PKC-θ
- phosphorylation of the peptide spot (32P, peptide array) [43]: shown to be substrates for PKC-θ
- phosphorylation of the peptide spot (32P, peptide array) [44]: shown to be substrates for PKC-θ
- phosphorylation of the peptide spot (32P, peptide array) [45]: shown to be substrates for PKC-θ
- phosphorylation of the peptide spot (32P, peptide array) [46]: shown to be substrates for PKC-θ
- phosphorylation of the peptide spot (32P, peptide array) [47]: shown to be substrates for PKC-θ
- phosphorylation of the peptide spot (32P, peptide array) [48]: shown to be substrates for PKC-θ
